The values that follow come from patent US20180214548A1 (SHANGHAI YUNYI HEALTHCARE AND TECHNOLOGY, published 2018).

Where two headings read alike, the source gives them in different places.

One assay concerns the target T1, B7-1 (human, UniProt P33681 35-242).
T1 sequence (looked up): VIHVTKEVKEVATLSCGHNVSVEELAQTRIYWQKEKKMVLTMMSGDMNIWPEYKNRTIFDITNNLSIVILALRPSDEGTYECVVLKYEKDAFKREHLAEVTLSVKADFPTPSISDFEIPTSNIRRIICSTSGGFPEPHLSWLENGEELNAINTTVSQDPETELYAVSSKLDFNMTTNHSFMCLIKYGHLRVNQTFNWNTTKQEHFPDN
Description: ELISA on coated protein (Table 22). (In an ELISA, binding on a coated surface is turned into a signal by an enzyme label.)

For the next assay, the target named is T2, ICOS (human, UniProt Q9Y6W8 21-140, limits assumed).
T2 sequence (looked up): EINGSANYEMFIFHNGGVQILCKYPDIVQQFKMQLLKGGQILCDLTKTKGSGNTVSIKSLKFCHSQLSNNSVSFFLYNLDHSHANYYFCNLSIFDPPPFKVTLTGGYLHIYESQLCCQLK
As to the kind of experiment: ELISA on coated protein (Table 22).

The target in a further assay is T3, CTLA4 (human, UniProt P16410 37-162, limits assumed).
T3 sequence (looked up): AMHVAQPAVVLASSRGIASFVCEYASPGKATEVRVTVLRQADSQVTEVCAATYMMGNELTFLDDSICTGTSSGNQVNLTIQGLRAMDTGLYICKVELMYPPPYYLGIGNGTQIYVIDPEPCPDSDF
Description: ELISA on coated protein (Table 22).

Assay [1] addresses T4, full length human PD-1 on cells (human, UniProt Q15116 25-288).
T4 construct: Also used here for PD-1 on human T cells/PBMC; also called CHO-K1-hPD-1; hPD-1
As to the kind of experiment: cell-based receptor ligand blocking assay (fully human antibodies), blocked ligand PD-L1.

Assay [2] has as its target T5, human PD-1^ECD-hFc protein (Immunogen A) (human, UniProt Q15116 25-167).
T5 construct: Biotinylated for the Octet assay; also called PD-1-hFc; hPD-1^ECD-hFc; not shown: human IgG Fc fragment (hFc)
Description: protein-based receptor ligand blocking assay (fully human antibodies), blocked ligand PD-L1. Here is the method: Purified PD-1^ECD-hFc (Example 2) was diluted with PBS to a final concentration of 1.0 ug/mL, and 100 uL diluted PD-1^ECD-hFc were added to each well of a 96-well plate that was then sealed with plastic film and incubated at 4° C. overnight. The plate was washed twice with wash buffer (PBS+0.01% (v/v) Tween 20) and incubated with blocking buffer (PBS+[…]) at room temperature for 2 hours. The blocking buffer was aspirated, and 50 uL purified anti-PD-1 antibodies from Example 2 were added to each well of 96-well plate. […] The plate was washed three times with wash buffer (PBS+0.01% (v/v) Tween 20). 100 uL HRP-conjugated streptavidin (Sigma) were then added to each well and incubated at 37° C. for 2 hours. The plate was then washed three times with wash buffer, and 100 uL TMB substrate were added to each well. After 30 minutes of incubation at room temperature, the reaction was stopped by adding 100 uL stop solution (0.1N HCl). The absorbance at OD450 nm was measured with an ELISA plate reader (384plus SpectraMax, Molecular Devices).

Assay [3] concerns the target T5, human PD-1^ECD-hFc protein (Immunogen A). Description: protein-based receptor ligand blocking assay (fully human antibodies), blocked ligand PD-L2.
The target in a further assay is CD28 (human, UniProt P10747 19-152). As to the kind of experiment: ELISA on coated protein (Table 22).
CD28, sequence (P10747 19-152 limits assumed): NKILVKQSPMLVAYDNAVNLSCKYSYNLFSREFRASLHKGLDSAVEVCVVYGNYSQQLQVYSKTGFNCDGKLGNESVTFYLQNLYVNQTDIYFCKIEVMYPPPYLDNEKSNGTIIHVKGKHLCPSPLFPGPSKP
Assay [4] addresses T4, full length human PD-1 on cells. Description: cell-based receptor ligand blocking assay (fully human antibodies), blocked ligand PD-L1. This is another data set of the same source.
Assay [5] has as its target T5, human PD-1^ECD-hFc protein (Immunogen A). As to the kind of experiment: protein-based receptor ligand blocking assay (fully human antibodies), blocked ligand PD-L2. This is another data set of the same source.

T5 sequence (Q15116 25-167): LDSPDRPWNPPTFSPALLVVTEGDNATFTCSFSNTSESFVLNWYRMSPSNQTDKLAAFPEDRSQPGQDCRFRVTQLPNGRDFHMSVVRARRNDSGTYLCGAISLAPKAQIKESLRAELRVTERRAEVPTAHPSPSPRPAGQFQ
T4 sequence (Q15116 25-288 limits assumed): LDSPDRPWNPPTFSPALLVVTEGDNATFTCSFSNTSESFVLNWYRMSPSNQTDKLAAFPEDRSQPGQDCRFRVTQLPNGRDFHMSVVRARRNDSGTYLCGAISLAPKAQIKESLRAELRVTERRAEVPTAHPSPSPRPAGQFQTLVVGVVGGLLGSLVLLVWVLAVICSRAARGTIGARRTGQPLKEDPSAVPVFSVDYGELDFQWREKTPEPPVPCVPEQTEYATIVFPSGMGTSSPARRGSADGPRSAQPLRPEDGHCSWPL

B1: fully human anti-PD-1 antibody 21G8F11 (antibody, human IgG4 S228P, kappa, V domains shown)
VH: EVQLLESGGGLAQPGGSLRLSCAASGFSFNTYLMHWVRQAPGKGLEWVSAISGGGGNTYYADSVKGRFTISRDNSKNTLYLQMNSLRAEDTAVYYCAKENRIPVAPFDYWGQGTLVTVSS
VL: DIQMTQSPSTLSASVGDRVTITCRASQSISTWLAWYQQKPGKAPKLLIYKASSLESGVPSRFSGSGSGTEFTLTISSLQPDDLATYYCQQYNSFSWTFGQGTKVEIKR
notes: also called 21G8F11 (fully human, IgG4 S228P / kappa)
As to B1, the binding result with B7-1, with ICOS and in the assay with CTLA4 was “no binding” each time. Further, the “IC50 (read off the curve)” value was roughly 5 nM in assay [1], roughly 1 nM in assay [2] and roughly 1 nM in assay [3].

B2: fully human anti-PD-1 antibody 76G5B3 (antibody, human IgG4 S228P, kappa, V domains shown)
VH: QVQLVESGGGVVQPGRSLRLSCAASGFTFSDYGFHWVRQAPGKGLEWVAVIWYDGSNEYYTDSVKGRFTISRDNSKNTLYLQMNSLRAEDTAMYFCVVNPFDYWGQGTLVTVSS
VL: DIQMTQSPSSLSAFVGDRVTITCRASQGINHYLAWYQQKPGKAPNLLILAASTLLSGVPSRFGGRGSGTDFTLIISSLQPEDVATYYCQKYDSAPYTFGQGTKLEIKR
notes: also called 76G5B3 (fully human, IgG4 S228P / kappa)
Take B2: the binding result with CD28, with B7-1, with ICOS and with CTLA4 was “no binding” in each case. Besides, the results for the “IC50 (read off the curve)” value in assay [4], in [2] and in assay [5] were roughly 0.3 µg/mL, roughly 2 nM and roughly 8 nM, respectively.
